How the values were obtained:
[1] = test system: MM1s (multiple myeloma) cell genome; experiment: ctDNA coculture with MM1s cells, whole genome sequencing: genomic insertion sites, transposons at insertion points and SNVs (multiple myeloma); assay type: cell-based, human
Procedure: (§1) The integration of ctDNAs into the host cell genome was evaluated. ctDNA was extracted from patient plasma, cultured for 24 hours with cells of a matching cancer cell type or non-matching cancer cell type, and whole genome sequencing was performed. The cell lines used were MM1s (multiple myeloma, MM) and MIA (pancreatic cancer, PC).
Single nucleotide variants (SNVs) unique to the ctDNA that were found in the host cell genome under matching coculture conditions were identified.
The sequence data was used to reconstruct genomic contigs for each experimental condition by de novo assembly. […] Coculture contigs carrying a ctDNA insertion were identified using NucDiff analysis. BLAST alignment analysis further validated the gain of ctDNA fragments in coculture conditions and identified the transition points of ctDNA insertion (FIGS. 3A-3C). […] The remaining 20% inserted into a chromosomal location distinct from their site of origin.
(§2) Experiments were designed to identify the presence of transposons in ctDNA fragments. To map ctDNA genomic junctions more precisely, a PACBIO probe was ligated to multiple myeloma and pancreatic cancer ctDNA samples to label their 5′ and 3′ ends. Whole-genome sequencing of DNA from cells with ctDNA genomic integration was done using the Illumina platform. De novo assembly was performed on the sequencing output. ctDNA contigs containing PACBIO adaptor were then matched to those contigs containing inserted ctDNA sequences identified in the coculture experiments. Transposable element on ctDNA sequences at the insertion points (<100 nucleotides from transition point between cell and ctDNA) were detected and classified using RepeatMaster.
(§3) A search was conducted for transposons that preferentially target cells of matching tumor types. The lists of transposons identified at the ctDNA insertion point in matching and mismatched coculture conditions were compared (e.g., MM ctDNA with MM cells or PC cells). Transposons were selected that were uniquely or preferentially inserted in the matching conditions.
In multiple myeloma, AluSp, MER11, MER11C, AluJb, and L2a, among other subfamilies of retrotransposons were identified at the MM ctDNA insertion sites (FIG. 5B and TABLE 7).
(§4) Whole-genome sequencing and Whole exon sequencing: ctDNA was extracted from 10 MM and 10 PC patients. DNA from CD138 (+) cells and from cell lines used in in vitro experiments (MM1s and MIA) was extracted using Blood & Cell Culture DNA Mini Kit (Quiagen, MD). DNA from […] paraffin embedded pancreatic tumors was obtained using QIAamp DNA FFPE Tissue Kit Print (Qiagen, MD).
(§5) After extraction, ctDNA was ligated to the PACBIO adaptor ([…]) using the ABM DNA Library Prep Kit for Illumina Sequencing (Applied Biological Materials Inc. Canada). PACBio-labeled ctDNA and regular ctDNA were subjected to standard methods for library preparation and sequencing using Illumina and Agilent protocols, respectively. Applied Biological Materials Inc. prepared the libraries and performed whole-exon and -genome sequencing. The average target coverage was 50×.
(§6) Identification of transposable elements and its nucleotide variants: To determine the locations of transposable-like regions in contigs, sequences were analyzed and transposable elements (TEs) were identified and classified using RepeatMasker version 4.1.0 and the Dfam database (release 3.1) of repetitive DNA families was used as a reference for identifying repeats in ctDNA contig sequences that were part of qualifying structural events. For each repeat sequence identified by RepeatMasker, the overall frequency of the specific repeat (e.g., for AluSp or L1) and their parent class (e.g., SINE) was computed.
Once the TE elements were identified, hit repeats/TE sequences, unique contigs for all samples, and insertion sequence were aligned with MAFFT software version. […]

[2] = test system: MIA (pancreatic cancer) cell genome; experiment: ctDNA coculture with MIA cells, whole genome sequencing: genomic insertion sites, transposons at insertion points and SNVs (pancreatic cancer); assay type: cell-based, human; conditions: for blast orientation: BLAST alignment orientation; for blast chr: chromosome with the longest result for BLAST analysis of the full contig; for Transposon orientation: compared with the human reference genome; for Location relative to insertion: location of the transposon relative to the insertion on the contig; for Location: identified genomic insertion site, chromosome; for No. SNP: number of single nucleotide variants (SNVs or SNPs) identified, polynucleotides for pancreatic cancer cells; for Chr location: position on the chromosome of the identified genomic insertion site
Procedure: as §1
The sequence data was used to reconstruct genomic contigs for each experimental condition by de novo assembly. […] Coculture contigs carrying a ctDNA insertion were identified using NucDiff analysis.
as §2, §3, §4
as §5, with “sequencing.” for “sequencing. The average target coverage was 50×.”
as §6
Once the TE elements were identified, hit repeats/TE sequences, unique contigs for all samples, and insertion sequence were aligned with MAFFT software version. Mutations in TE sequences were identified by comparison of nucleotides at each position in the multiple sequence alignment with the “Biostrings” R package (version 4.1). A position was considered to contain mutation if the substitution was present in contigs of all samples.

[3] = TABLE 8, pancreatic cancer co-culture

L1MB3
blast orientation ([1]; TABLE 7, multiple myeloma co-culture, BLAST alignment orientation): Plus/Plus | blast chr ([1]; TABLE 7, multiple myeloma co-culture, chromosome with the longest result for BLAST analysis of the full contig): chr2 | Distance from insertion ([1]; TABLE 7, multiple myeloma co-culture, distance between insertion and the transposon (0 if they overlap)): −68 | Location relative to insertion ([1]; TABLE 7, multiple myeloma co-culture, location of the transposon relative to the insertion on the contig): right

B1: MLT1J2 (nucleic acid, listed as Homo sapiens)
DNA: TGTGTTAGTCAGGATAGGCTAACCTCTGTAACACACAACCCCAATTTTTCAGTGGCTCAGAACAATAGGAGTTTCTTTCTTACTCATGTAAAGTCCAGGTGTGGCAGAAACTTGCGGGGGAGAAAGTCTACTCCACAGCATCACTCAGGGACCCAGGCTCCTGCCTTACGGTGGTTCCGCCATTTTCCAGGGCCTCGGAGTCCTCCATCCCATCTCCTCCATTCAGCTGGTGGATGTGGGAGGAGAGCGTGTATGAAAGACCACACAGAAGCTTTTTTTGGGCCAGGCTTTGAGACGGCGCACATCAGTTTCGCTCTTGTTGCCCAGGCTGGAGTGCAATGGCGCAATCTCGGCTCACCGCAAAAGACACTGGGAAATTTGGTCTGGCCATGTGTCTAGGAAGCAGAGGAGATGGGGTTTCATAAACTCCTGAACTCTCTCTACCACG
blast orientation [2, 3]: Plus/Plus | blast chr [2, 3]: chr21 | Transposon orientation [2, 3]: direct | Distance from insertion ([2]; TABLE 8, pancreatic cancer co-culture, distance between insertion and the transposon (0 if they overlap)): 0 | Location relative to insertion [2, 3]: intersect

B2: 67 (nucleic acid, listed as Homo sapiens)
chain: CCTTAATAGTTAATCTCCTATTAATAAGTAAGTGATTCTTTAATTAAACTTTCCTCATTCAAATGGCCATATGCTTTCTGTCTCTCGACTAGATGCTGAGTGATATACCCCCCA
modifications: listed as DNA, chemistry not fully specified
Location ([2]; TABLE 4): Chr 19 | No. SNP ([2]; TABLE 4): 1 | Chr location ([2]; TABLE 4): 40372997

B3: 26 (nucleic acid, listed as Homo sapiens)
chain: AATTACAACAACCCTTAATATTTGTAAAGCGCTTGATAATTCAGGGAGGGCTTTTAAAAACTTCTATCCATCTCTTCCCCCCAGCAATCCTATGAGGTAGGCAGGGCTGGAATCATTTGCTGCATTTTATCGAATAGGAAGCCATGACTCGTAGAGGTCTGGTGACTTAACTGAGGTCACCCACTGAGGACGTGGCAGAGCTGGGTCCTGAATCTGTGGCCCTCAGGCTCTTTGCCTGGCCCTGCCTCACATAGACTACGCTGCCTCT
Gene ([2]; TABLE 4, gene at identified genomic insertion site): PPAC | Location ([2]; TABLE 4): Chr16 | No. SNP ([2]; TABLE 4): 0

B4: MIRc (nucleic acid, listed as Homo sapiens)
DNA: AATTACAACAACCCTTAATATTTGTAAAGCGCTTGATAATTCAGGGAGGGCTTTTAAAAACTTCTATCCATCTCTTCCCCCCAGCAATCCTATGAGGTAGGCAGGGCTGGAATCATTTGCTGCATTTTATCGAATAGGAAGCCATGACTCGTAGAGGTCTGGTGACTTAACTGAGGTCACCCACTGAGGACGTGGCAGAGCTGGGTCCTGAATCTGTGGCCCTCAGGCTCTTTGCCTGGCCCTGCCTCACATAGACTACGCTGCCTCT
blast orientation [2, 3]: Plus/Plus | blast chr [2, 3]: chr16 and chr8 | Transposon orientation [2, 3]: direct | Location relative to insertion [2, 3]: left

B5: 4 (nucleic acid, listed as Homo sapiens)
chain: TGATATGGTTTGGCTGTGTCCCCACCTAAATCTCATCTTGAATTGTAGTTCCCATAATCCCCATGTGTCATGGGAGGGACCCAGTGGGAGGTAATTTAATCCTGGGGGCAGTTACCCTCCTGCTATGTGTGTGTGTGTGTGTGTGTTCTCACGAGATCTGATGGTTTTATAAGGGGCTTTTCCCCCTTCGCTCGGCACTTCTCCTTCCTGCCGCCATGTGAAGAAGGACGTGTTTGCTTCCCCTTCCGCCATGATTGTAAGTTTCCTGAGGCCTCCCCAGCCATGCNGAACTGTGAGTCAATTAAACCTCTTTCCTTTATAAATTACCCAGTCTCGGGTGTGTCTTTATTAGCAGCGTGAGAACGGACTAATACA
modifications: misc_difference 287 a, c, t, g, unknown or other
Gene ([1]; gene at identified genomic insertion site, multiple myeloma): PI4K2B | Location ([1]; identified genomic insertion site, chromosome, multiple myeloma): Chr4 | No. SNP ([1]; number of single nucleotide variants (SNVs or SNPs) identified, multiple myeloma): 2

B6: 60 (nucleic acid, listed as Homo sapiens)
chain: ATTCAGAAGACAAATCTCACATGCAAAGACACACATAGGCTCAAAATAAGTGGATGGAGGAATATTTACCAAGCAAATGGCAAGCAAAAAGAAAAAGCAGGGGTTGCAATCCTAGTATCTGATAAAACAGGCTTTAAACCAAGAAAGATCAAAAAAGACAAAGAAGGTCATTACATAATGGTAAAGGGATCAATGCAACAAGAAGAGCTAACTATCCTAAATATATACGCACCCAATACAGGAGCACCCAGATTCATAAAGTAAATTCTTAGAGACTACAAAGAGACTTATACTCCCATACAATAATAGTGGGAGATTTTAACACCTCATTGTTGATATTAGATCAATGAGACAGAAAATTAACAAGGATATTCAGGACTTGAACTCAGCACTGGACAAAGCAGATTTAATAGACATCTACAGAACTCTCTACCTCAGATCAACAGAATATACATTCTTCTCAGCACCACATAGCACTTATTCTAAAATTGACCACATAATTGGAAGTAAAACACTCCTCAACGAATGCAAAAGAATGGAAATCATAACAAACAGTCTCTCAGACCACAGTGCAATCAAATTAGAACTCAGGATTACGAAACTTACTCAAAACTGCACAACTACATGGAAACTGAACAACCTGCTCCTGAACGACTACTGGGTAAATAATGAAATGAAGGCAGAAATAAATAAGTTTTTGAAACCAATGAGAACAAAGACACAACATACCAGAATCTCTGGGACACAGCTAAAACAGTG
Location ([2]; TABLE 4): Chr 4 | No. SNP ([2]; TABLE 4): 1 | Chr location ([2]; TABLE 4): 36939485

B7: 61 (nucleic acid, listed as Homo sapiens)
chain: TATTTTTAAGCAAAGACTTAGAGAGAGAGAGGAAGTTAGCTATGCACATTGTGGGTGCGGTGTGGTTAGGGTGGCCCTGAGATAGGGATATGCCTGGTGTGTTTACGGAACAGCTAAGAGGCCAGGGAACTAGAGGAAATTGAGTGGGAAGGAGAAGAGTAGGAGATTAGTTTTGAAAAGCAAATGGTTTGGGAATATGGATCATGTAAGAGCACATGAGATTTTATAAGGATTTCATTTTACTCAGGGTGAAATGAAGAAGCACTAAAA
Location ([2]; TABLE 4): Chr 14 | No. SNP ([2]; TABLE 4): 1 | Chr location ([2]; TABLE 4): 21413450

Source: patent US20250241939A1, “NUCLEIC ACID-BASED DELIVERY SYSTEMS AND USES THEREOF” (Kodikaz Therapeutic Solutions, Inc., priority 2022, published 2025)
